# Measurements from publication PMC2747011, “Soybean GmPHD-Type Transcription Regulators Improve Stress Tolerance in Transgenic Arabidopsis Plants”.
# T1: GST-GmPHD5 (Glycine max, UniProt Q06A75 1-252)
# T1 sequence: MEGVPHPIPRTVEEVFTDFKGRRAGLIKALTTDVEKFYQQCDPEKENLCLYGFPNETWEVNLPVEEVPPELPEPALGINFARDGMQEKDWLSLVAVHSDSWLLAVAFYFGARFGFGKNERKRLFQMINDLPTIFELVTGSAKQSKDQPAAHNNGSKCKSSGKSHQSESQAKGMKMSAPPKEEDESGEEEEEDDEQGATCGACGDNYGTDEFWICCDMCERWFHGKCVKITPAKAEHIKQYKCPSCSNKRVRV
# T2: GST-GmPHD6 (Glycine max, UniProt I1L1N8 1-248)
# T2 sequence: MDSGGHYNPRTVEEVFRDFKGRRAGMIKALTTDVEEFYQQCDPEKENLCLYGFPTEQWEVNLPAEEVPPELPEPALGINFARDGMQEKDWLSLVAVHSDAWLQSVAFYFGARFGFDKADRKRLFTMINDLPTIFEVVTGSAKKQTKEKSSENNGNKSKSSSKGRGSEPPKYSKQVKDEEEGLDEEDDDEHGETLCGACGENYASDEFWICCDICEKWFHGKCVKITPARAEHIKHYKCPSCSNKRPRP
# T3: GmPHD4 NV (Glycine max, UniProt I1M961 1-199)
# T3 sequence: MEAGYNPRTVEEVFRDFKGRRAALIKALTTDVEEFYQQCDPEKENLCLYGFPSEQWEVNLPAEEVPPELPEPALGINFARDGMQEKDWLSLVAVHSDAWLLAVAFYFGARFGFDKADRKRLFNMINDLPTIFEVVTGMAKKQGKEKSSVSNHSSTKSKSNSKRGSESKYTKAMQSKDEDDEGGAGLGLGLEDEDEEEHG
# T4: GmPHD4 N domain (Glycine max, UniProt I1M961 1-114)
# T4 sequence: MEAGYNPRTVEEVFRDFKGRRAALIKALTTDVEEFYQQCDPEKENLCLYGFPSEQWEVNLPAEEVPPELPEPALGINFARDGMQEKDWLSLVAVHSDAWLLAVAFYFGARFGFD
# Tests used:
# Conditions in all cases: protein: recombinant; tags: GST (N-term, pGEX-4T-1); strand 1 has 5' overhang AATT (4 nt) and 3' overhang AGCT (4 nt); strand 2 fully paired
# GST-GmPHD5 = target: T1, GST-GmPHD5; experiment: EMSA; reduced by 10x unlabeled probe; Binding buffer not given (EMSA as in ref. 59); probe annealed in 50 mM NaCl; competitor in ten-fold excess
# GST-GmPHD6 = target: T2, GST-GmPHD6; experiment: as above
# GmPHD4 NV = target: T3, GmPHD4 NV; experiment: EMSA; Binding buffer not given (EMSA as in ref. 59); probe annealed in 50 mM NaCl; competitor in ten-fold excess
# GmPHD4 N domain = target: T4, GmPHD4 N domain; experiment: EMSA; strong; Binding buffer not given (EMSA as in ref. 59); probe annealed in 50 mM NaCl; competitor in ten-fold excess
binder,measurement,setting,value
5x GTGGAG probe (dsDNA) DNA 1: AATTCGGATCCGTGGAGGTGGAGGTGGAGGTGGAGGTGGAGGGTACCGAGCT DNA 2: CGGTACCCTCCACCTCCACCTCCACCTCCACCTCCACGGATCCG,binding result,GST-GmPHD5,binds
same,binding result,GST-GmPHD6,binds
same,binding result,GmPHD4 NV,no binding
same,binding result,GmPHD4 N domain,binds
